Measured values: patent US10400249B2, “HPPD variants and methods of use” (priority 2014, dated 2019)
Substitutions are numbered along the chain they refer to. In names and notes the source's numbering stands.

B1: K131: PfHPPD variant E335P, G336Y, K339A, A340Q (protein)
chain: MADLYENPMGLMGFEFIEFASPTPGTLEPIFEIMGFTKVATHRSKNVHLYRQGEINLILNNEPNSIASYFAAEHGPSVCGMAFRVKDSQKAYNRALELGAQPIHIDTGPMELNLPAIKGIGGAPLYLIDRFGEGSSIYDIDFVYLEGVERNPVGAGLKVIDHLTHNVYRGRMVYWANFYEKLFNFREARYFDIKGEYTGLTSKAMSAPDGMIRIPLNEESSKGAGQIEEFLMQFNGEGIQHVAFLTDDLVKTWDALKKIGMRFMTAPPDTYYEMLEGRLPDHGEPVDQLQARGILLDGSSVEGDKRLLLQIFSETLMGPVFFEFIQRKGDDGFGPYNFAQLFESIERDQVRRGVLTAD
modifications: HPPD variant - K131
notes: PfHPPD variant E335P, G336Y, K339A, A340Q
B2: K255: PfHPPD variant P215A, E335P, G336F, A340E (protein)
chain: B1 chain with P215A, Y336F, A339K, Q340E
modifications: HPPD variant - K255
notes: PfHPPD variant P215A, E335P, G336F, A340E
B3: K258: PfHPPD variant P215N, E335P, G336F, A340E (protein)
chain: B1 chain with P215N, Y336F, A339K, Q340E
modifications: HPPD variant - K258
notes: PfHPPD variant P215N, E335P, G336F, A340E
B4: PfHPPD: wild-type Pseudomonas fluorescens HPPD, reference protein (protein)
chain: B1 chain with P335E, Y336G, A339K, Q340A
modifications: Pseudomonas Fluorescens
B5: K137: PfHPPD variant P215L, E335P, G336Y (protein)
chain: B1 chain with P215L, A339K, Q340A
modifications: HPPD variant - K137
notes: PfHPPD variant P215L, E335P, G336Y
B6: K407: PfHPPD variant A188G, R189E, P215N, E335P, G336F, A340E (protein)
chain: B1 chain with A188G, R189E, P215N, Y336F, A339K, Q340E
modifications: HPPD variant - K407
notes: PfHPPD variant A188G, R189E, P215N, E335P, G336F, A340E
B7: K300: PfHPPD variant P215L, E335P, G336F, A340G (protein)
chain: B1 chain with P215L, Y336F, A339K, Q340G
modifications: HPPD variant - K300
notes: PfHPPD variant P215L, E335P, G336F, A340G
B8: K299: PfHPPD carrying only the P215L mutation, used as a second reference (protein)
chain: B1 chain with P215L, P335E, Y336G, A339K, Q340A
modifications: HPPD variant - K299
B9: K406: PfHPPD variant A188G, R189G, P215N, E335P, G336F, A340E (protein)
chain: B1 chain with A188G, R189G, P215N, Y336F, A339K, Q340E
modifications: HPPD variant - K406
notes: PfHPPD variant A188G, R189G, P215N, E335P, G336F, A340E
B10: C959: reference PfHPPD mutant E335P (protein)
chain: B1 chain with Y336G, A339K, Q340A
modifications: HPPD variant - C959
B11: K132: PfHPPD variant E335P, G336Y, A340E (protein)
chain: B1 chain with A339K, Q340E
modifications: HPPD variant - K132
notes: PfHPPD variant E335P, G336Y, A340E
B12: K408: PfHPPD variant A188G, R189D, P215N, E335P, G336F, A340E (protein)
chain: B1 chain with A188G, R189D, P215N, Y336F, A339K, Q340E
modifications: HPPD variant - K408
notes: PfHPPD variant A188G, R189D, P215N, E335P, G336F, A340E
B13: K203: PfHPPD variant P215L, E335P, G336Y, A340E (protein)
chain: B1 chain with P215L, A339K, Q340E
modifications: HPPD variant - K203
notes: PfHPPD variant P215L, E335P, G336Y, A340E
B14: K405: PfHPPD variant A188G, R189C, P215A, E335P, G336F, A340E (protein)
chain: B1 chain with A188G, R189C, P215A, Y336F, A339K, Q340E
modifications: HPPD variant - K405
notes: PfHPPD variant A188G, R189C, P215A, E335P, G336F, A340E

Key:
[1] = tested on: Pseudomonas fluorescens HPPD protein; test: OD assay: HPPD activity and pI50 from HPP remaining after derivatisation with DNP; assay type: biochemical; conditions: for Activity DeltaE/24 min μg Protein: HPPD enzyme activity of the clone; for tolerance (pI50) DKN: inhibitor diketonitrile (DKN), negative log of molar concentration; for tolerance (pI50) MST: inhibitor mesotrione (MST); for tolerance (pI50) TBT: inhibitor tembotrione (TBT); for tolerance (pI50) Cmpd. 2: inhibitor Cmpd. 2
Method: (§1) HPPD proteins were produced and purified as described in WO2011/076882. The activity of HPPD proteins in absence or presence of HPPD inhibitors was determined using either the so called OD assay or the HGD assay.
(§2) • a) The OD assay: The HPPD activity was determined colourimetrically by measuring the amount of HPP remaining in the assay mixture at the end of the incubation period after derivatisation of HPP with 2,4-dinitrophenylhydrazine (DNP) to form an amber-brown colored 2,4-dinitrophenylhydrazone under alkaline conditions. The assay was carried out at room temperature in Greiner F-bottom 96 well microplates. The assay mixture contained 50 mM Tris-HCl pH 7.8, 0.5 mM HPP, 10 mM ascorbate, 650 units of catalase and appropriate amounts of purified HPPD enzyme in a total assay volume of 100 μl. The reaction was started by the addition of enzyme. After an incubation time of 24 minutes, the reaction was stopped by the addition of 50 μl of a solution of 0.04% DNP dissolved in 3.8 N HCl. After a further 15-minute incubation period 100 μl of a 5 N KOH solution was added to the reaction mixture and the amount of unconsumed HPP was measured photometrically at 405 nm. Enzyme activity was calculated as the difference in E405 between assays lacking enzyme (negative control) and the enzyme containing assays (ΔE405=E405(negative control)−E405). Enzyme activity (nmol substrate consumed per min) was calculated from a calibration curve generated from HPP. pI50-values (the negative log value of the concentration of inhibitor necessary to inhibit 50% of the enzyme activity in molar concentration were determined from dose-response plots of HPPD activity versus inhibitor concentration tested (5.0×10^−6, 1.0×10^−5, 2.5×10^−5, 4.0×10^−5, 7.0×10^−5, 1.0×10^−4, 2.0×10^−4 and 5.0×10^−4M) using the 4 Parameter Logistic Model or Sigmoidal Dose-Response Model of the ID Business Solutions Ltd. XLfit software suite. The result “>5.6” means that the inhibition at the lowest inhibitor concentration tested was higher than 85% and the pI50-value could therefore not be precisely calculated within in the range of concentration of inhibitor tested. The result “<2.5” means that the inhibition at the highest inhibitor concentration tested was lower than 25% and the pI50-value could therefore not be precisely calculated within in the range of concentration of inhibitor tested. “n.d.” means not determined. • b) The HGD assay: With the HGD assay HPPD activity was measured at room temperature by adding appropriate amounts of HPPD to a solution of 200 mM Tris-HCl pH 7.6, 10 mM ascorbate, 20 μM FeSO4, 650 units of catalase, 8 μg HGA dioxygenase (HGA: homogentisate) and 600 μM HPP in a total volume of 1 ml. Initial reaction rates in the absence or presence of inhibitors were determined from the increase in absorbance at 318 nm due to the formation of maleylacetoacetate (ε318=11,900 M−1 cm-1). pI50-values (the negative log value of the concentration of inhibitor necessary to inhibit 50% of the enzyme activity in molar concentration were determined from dose-response plots of HPPD activity versus inhibitor concentration tested using the 4 Parameter Logistic Model or Sigmoidal Dose-Response Model of the ID Business Solutions Ltd. XLfit software suite. Due to the UV absorption of the HPPD inhibitors tested, inhibitor concentrations >100 μM could not be tested. The result “<4” means that the inhibition at 100 μM inhibitor concentration was lower than 25% and the pI50-value could therefore not be precisely calculated within in the range of concentration of inhibitor tested. “n.d.” means not determined. The HGD assay allowed to continuously follow HPPD-catalyzed HGA formation over time was therefore used to determine the inhibition type of the HPPD inhibitors tested. […] When in the presence of an inhibitor the HPPD activity was inhibited but the inhibition was found not to […] in a time-dependent manner, the inhibitor was called reversible (abbreviation “rev”). […]

[2] = tested on: Pseudomonas fluorescens HPPD protein; test: HGD assay: HPPD activity coupled to HGA dioxygenase, pI50 and type of inhibition (time-course); assay type: biochemical; conditions: for tolerance (pI50) Cmpd. 2: inhibitor Cmpd. 2
Method: as §1, §2

| Molecule | Activity DeltaE/24 min μg Protein [1] [DeltaE/24 min μg Protein] | tolerance (pI50) DKN [1] | tolerance (pI50) MST [1] | tolerance (pI50) TBT [1] | mechanism of inhibition by Cmpd. 2, time-course of inhibition [2] | tolerance (pI50) Cmpd. 2 ([2]; HGD assay) | tolerance (pI50) Cmpd. 2 [1] | tolerance (pI50) Cmpd. 1 ([2]; inhibitor Cmpd. 1, HGD assay) | tolerance (pI50) Cmpd. 4 ([2]; inhibitor Cmpd. 4, HGD assay) |
| --- | --- | --- | --- | --- | --- | --- | --- | --- | --- |
| B1 | 0.50 | 3.3 | 3.7 | 4.8 | fully reversible inhibitor | 6.2 |  |  |  |
| B2 | 0.09 | 3.0 | 3.7 | 4.5 | fully reversible inhibitor |  | 5.0 |  |  |
| B3 | 0.15 | <2.5 | 3.4 | 4.4 | fully reversible inhibitor |  | 5.4 |  |  |
| B4 | 0.76 | >5.6 | >5.6 | >5.6 |  |  | >5.6 |  |  |
| B5 | 0.12 | 2.8 | 3.4 | 4.7 | fully reversible inhibitor | 5.5 |  |  |  |
| B6 | 0.41 | <2.5 | 3.6 | 4.6 |  |  | 5.7 |  |  |
| B7 | 0.01 | <2.5 | <2.5 | 3.1 | fully reversible inhibitor | 4.3 | 3.8 |  |  |
| B8 | 0.17 | 5.1 | 5.5 | >5.6 |  |  | >5.6 |  |  |
| B9 | 0.52 | <2.5 | 3.5 | 4.5 |  |  | 5.6 |  |  |
| B10 | 0.09 | 5.5 | >5.6 |  |  |  |  |  |  |
| B11 | 0.50 | 3.1 | 3.7 | 4.8 | fully reversible inhibitor | 5.9 |  | 5.5 | 6.9 |
| B12 | 0.56 | <2.5 | 3.6 | 4.6 |  |  | 5.7 |  |  |
| B13 | 0.08 | <2.5 | 3.0 | 3.9 | fully reversible inhibitor | 5.3 |  |  |  |
| B14 | 0.16 | 3.3 | 3.7 | 4.8 |  |  | 4.9 |  |  |
